Where a chain is given by its changes, count along the chain named. “Also recorded” adds a separate entry of the source.
B1: NMC-103: mouse monoclonal antibody of the IgG1 isotype that binds to NMC-P1 (SEQ ID NO:1); VH SEQ ID NO:36, VL SEQ ID NO:37 (antibody, V domains shown)
VH: EVQLQESGGGLVQPGGSLRLSCTTSGFTFTHYYMSWVRQPPGKALEWLGFIRNKAKGYTAEYSASVKGRFTISRDNSQSILYLQMNTLRPEDSATYYCARDIGDNWGQGTLVTVSS
VL: DIVMTQAAFSNPVTLGTSASISCRSSKNLLHSNGITYLYWYLQRPGQSPQLLISRVSNLASGVPNRFSGSESGTDFTLRISRVEAEDVGVYFCAQLLELPYTFGGGTKLEIK
modifications: mAb NMC-103 Heavy Chain Variable Region; mAb NMC-103 Light Chain Variable Region
B2: NMC-H103 (VH4/VK3): humanized NMC-103 variant, human IgG1, VH4 (SEQ ID NO:299) and VK3 (SEQ ID NO:297) (antibody, V domains shown)
VH: B1 VH with Q5V, G16P, P40A, A44G, Q78K, I80T, T87S, P90A, S93T, T95V
VL: B1 VL with A7T, A8P, F9L, N11S, T17Q, S18P, R44K, N65D, R79K, L109V
modifications: human IgG1 constant regions lacking entries; mAb NMC-H103.VH4Heavy Chain Variable Region; mAb NMC-H103.VK3Light Chain Variable Region
B3: NMC-204: mouse monoclonal antibody of the IgG3 isotype that binds to NMC-P2 (SEQ ID NO:2); VH SEQ ID NO:38, VL SEQ ID NO:39 (antibody, V domains shown)
VH: EVQLQESGSVLVRPGASVKLSCKASGDTLSGSWMHWAMQRPGQGLEWIGEIHLNRGTTNYNEKFKGKATVTVDTSSSTAYVDLSSLTSEDSAVYYCARSPGFAYWGQGTLVTVSA
VL: GIVMTQAAPSVPVTPGESVSISCRSSKSLLHSNGNSYLYWFLQRPGQSPQLLIYRMSNLASGVPDRFSGSGSGTAFTLRITRVEAEDVGVYYCMQHLEYPFTFGSGTKLEIK
modifications: mAb NMC-204 Heavy Chain Variable Region; mAb NMC-204 Light Chain Variable Region

Assays:
Assay in all cases: Cell-ELISA on intact cells
Type in all cases: cell-based
[1] = tested on: mouse colon cancer MC-38 cells; conditions: for relative binding (reactivity) to intact cells, cell-ELISA: MC-38, mAb 1 μg/mL, fixed, non-permeabilized cells
Method: (§1) Cell-ELISA Methodology: 8,000-10,000 cells/well of a 96-well microplate were grown overnight. The next day, unbound cells were washed off with sterile 1×PBS. The cells in each well were fixed with freshly prepared 4% buffered paraformaldehyde (pH 7.2) for 1 hour followed by 3 washes with 1×PBS. The wells were then blocked with 5% BSA in PBS (100 μl/well) for 2 hours at room temperature. Microplate wells were then washed 5 times with 300 μl of ice cold 1×PBS. MAbs NMC-103, NMC-204 or NMC-303 at 1 μg/mL in 1% BSA/PBS were then incubated with various cancer or normal untransformed cells for 2 hours at room temperature. Wells were then washed with 300 μl of ice-cold 1×PBS for 5 times and corresponding secondary antibody HRP-GaM F(ab′)2 diluted 1:2500 or 1:5000 in PBS with 1% BSA were added at 100 μl/well for 1 hour at room temperature followed by washing 5 times with 300 μl of ice-cold 1×PBS. TMB Substrate Solution (1-Step™ Ultra TMB-ELISA, ThermoFisher, Cat. No. 34028) was then added at 50 μL to each microplate well and incubated at room temperature for 30 minutes. The reaction was stopped by addition of 50 μL of stop solution (ThermoFisher, Cat. No. SS04) to each well and absorbance of each well was measured at OD450 nm. The absorbance value of each experimental well was corrected for the absorbance value obtained from wells treated with isotype-identical mAbs included in each experiment. The results are thus expressed as “relative binding”.
(§2) In a 96-well microplate, 15,000 cells/well were cultured overnight. The next day, unbound cells were washed off with sterile 1×PBS. The cells in each well were fixed with freshly prepared 4% buffered paraformaldehyde (pH 7.2) for 1 hour, followed by 3 washes with 1×PBS. The wells were then blocked with 5% BSA in PBS (100 μl/well) for 2 hours at room temperature. Microplate wells were then washed 5 times with 300 μl of ice cold 1×PBS. Monoclonal antibodies NMC-H103 (VH4/VK3) or NMC-C303 at 5 μg/mL in 1% BSA/PBS were then incubated with various cancer cells for 2 hours at room temperature. Wells were then washed with 300 μl of ice-cold 1×PBS for 5 times and corresponding secondary antibody HRP-GaH F(ab′)2 diluted 1:2000 or 1:4000 in PBS with 1% BSA were added at 100 μl/well for 1 hour at room temperature followed by washing 5 times with 300 μl of ice-cold 1×PBS. TMB Substrate Solution (1-Step™ Ultra TMB-ELISA, ThermoFisher, Cat. No. 34028) was then added at 50 μL to each microplate well and incubated at room temperature for 30 minutes. The reaction was stopped by addition of 50 μL of stop solution (ThermoFisher, Cat. No. SS04) to each well and absorbance of each well was measured at OD450 nm. The absorbance value of each experimental well was corrected for the absorbance value obtained from wells treated with isotype-identical mAbs included in each experiment.

[2] = tested on: mouse Lewis Lung LL/2 cells; conditions: for relative binding (reactivity) to intact cells, cell-ELISA: LL/2, mAb 1 μg/mL, fixed, non-permeabilized cells
Method: as §1, §2

[3] = tested on: mouse pancreatic Panc02 cells; conditions: for relative binding (reactivity) to intact cells, cell-ELISA: Panc02, mAb 1 μg/mL, fixed, non-permeabilized cells
Method: as §1, §2

[4] = tested on: human breast cancer MCF-7 cells; conditions: for relative binding (reactivity) to intact cells, cell-ELISA: MCF-7, mAb 1 μg/mL, fixed, non-permeabilized cells
Method: as §1, §2

[5] = tested on: human melanoma A2058 cells; conditions: for relative binding (reactivity) to intact cells, cell-ELISA: A2058, mAb 1 μg/mL, fixed, non-permeabilized cells
Method: as §1, §2

[6] = tested on: human ovarian cancer OVCAR-3 cells; conditions: for relative binding (reactivity) to intact cells, cell-ELISA: OVCAR-3 (resistant to adriamycin, melphalan, cisplatin), mAb 1 μg/mL, fixed, non-permeabilized cells
Method: as §1, §2

[7] = tested on: primary patient-derived human ovarian cancer OVCA4 cells; conditions: for relative binding (reactivity) to intact cells, cell-ELISA: OVCA4, mAb 1 μg/mL, fixed, non-permeabilized cells
Method: as §1, §2

[8] = tested on: human pancreatic cancer MIA PaCa-2 cells; conditions: for binding to intact, EDTA-released MiaPaCa-2 cells, cell-ELISA: EDTA 10 mmols, pH 7.2, 5 min, 37° C.; for relative binding (reactivity) to intact cells, cell-ELISA: MIA PaCa-2, mAb 1 μg/mL, fixed, non-permeabilized cells; for binding to intact MIA PaCa-2 cells when competed with NMC-P2 peptide / binding to intact MIA PaCa-2 cells when competed with soluble NMC-P1 peptide: cell-ELISA peptide competition
Method: as §1, §2

| Molecule | relative binding (reactivity) to intact cells, cell-ELISA [1] | relative binding (reactivity) to intact cells, cell-ELISA [2] | relative binding (reactivity) to intact cells, cell-ELISA [3] | relative binding (reactivity) to intact cells, cell-ELISA [4] | relative binding (reactivity) to intact cells, cell-ELISA [5] | relative binding (reactivity) to intact cells, cell-ELISA [6] | relative binding (reactivity) to intact cells, cell-ELISA [7] | binding to intact, EDTA-released MiaPaCa-2 cells, cell-ELISA [8] | relative binding (reactivity) to intact cells, cell-ELISA [8] | binding to intact MIA PaCa-2 cells after pre-incubation with full-length recombinant HDM2 ([8]; cell-ELISA competition) | binding to intact MIA PaCa-2 cells when competed with NMC-P2 peptide [8] | binding to intact MIA PaCa-2 cells when competed with soluble NMC-P1 peptide [8] | binding to intact, un-permeabilized cells, cell-based ELISA ([1]; MC-38 colon cancer cells, mAb 5 μg/mL) | OD reading / binding after pre-incubation of antibody with NMC-P1 ([2]; LL/2 cells, antibody 5 μg/mL, NMC-P1 at ×10 the concentration of mAbs) | binding to intact, un-permeabilized cells, cell-based ELISA ([3]; Panc-2 pancreatic cancer cells, mAb 5 μg/mL) | binding to intact, un-permeabilized cells, cell-based ELISA ([4]; MCF-7 breast cancer cells, mAb 5 μg/mL) | binding to intact, un-permeabilized cells, cell-based ELISA ([5]; mAb 5 μg/mL) | binding to intact, un-permeabilized cells, cell-based ELISA ([6]; OVCAR-3 ovarian cancer cells, mAb 5 μg/mL) | binding to intact, un-permeabilized cells, cell-based ELISA ([7]; OVCA-4 ovarian cancer cells, mAb 5 μg/mL) | binding to intact, un-permeabilized cells, cell-based ELISA ([8]; MIAPaCa-2 pancreatic cancer cells, mAb 5 μg/mL) |
| --- | --- | --- | --- | --- | --- | --- | --- | --- | --- | --- | --- | --- | --- | --- | --- | --- | --- | --- | --- | --- |
| B1 | reactivity | reactivity | reactivity | reactivity | reactivity | reactivity | reactivity | bound | reactivity | reduced | did not have any effect | completely abolished |  |  |  |  |  |  |  |  |
| B2 |  |  |  |  |  |  |  |  |  |  |  |  | binding | 1.09 OD450 (absorbance, unitless) | binding | binding | binding | binding | binding | binding |
| B3 | reactivity | reactivity | reactivity | reactivity | reactivity | reactivity | reactivity | bound | reactivity; also recorded: reacted |  | competed | not with NMC-P1 |  |  |  |  |  |  |  |  |
